This note sets out measurements from paper PMC7511442.

Experiment [1] has as its target GFP-GiKIN14a (recombinant full-length GiKIN14a with an N-terminal GFP) (Giardia intestinalis). Briefly: hydrodynamic analysis.
In experiment [2] the target is GFP-GiKIN14a-Δtail (Giardia intestinalis). Put plainly: hydrodynamic analysis.
For experiment [3] the target is unchanged. Put plainly: single-molecule photobleaching.

On to “GFP-GiKIN14a (recombinant full-length GiKIN14a with an N-terminal GFP) (natural protein)”, for which the stoichiometry N in experiment [1] amounted to 2.

Consider GFP-GiKIN14a-Δtail (domain or fragment), for which the stoichiometry N in experiment [2] and in experiment [3] was 2 throughout.
